Measured values from the domain aggregation screens of Martell et al. (2025).

Test: soluble fraction after stress (log2 fold change); higher = more stays soluble; pooled small domains, quantitative proteomics
Conditions: stress: 50 degC
Method in brief: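 Custom libraries of small protein domains were pooled and measured in a high-throughput format, with quantitative proteomics as the read-out. Each library was stressed at 50°C. The value is the log2 fold change in the amount of each protein that stays soluble after stress, used as a measure of aggregation propensity; higher values mean more of the protein stays soluble.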

Sequence | soluble fraction (log2)
HMGQDGFIGLEAAKKLVLQKLGLTSAEFIKAELDAEDRKYELELIVDGIEYDFDIDAYSGAFLKQEQETV | -0.215
HMAIKWTPEIEDEVSNKLKEKWSPEQISAWLKKNKSIMISHQRIYQFIVEDKMSGGNLYRNLRQ | -0.695
HMNVYAGTMINVVGLQVEDAASRLRGLFYSVKIVEEESQEPDGKVLRQNIAEGTKDLEAWTLVELTVSKYV | -0.872
HMSNLTDLVSAKEAEVYLHFLESGSTAGMTEAELRAVRKIEELIQSNKIDYNGILRIRNETVK | 0.139
HMEGYLYLSESQNELILKNLKTPLKYNLYNASGKLIKKGNIKNTLDISELPKGVYIFTSSDNSFSKKFLKT | -0.0444
HMENLIEELTAKNKEYIHSVTKQLILVGKSDEEVKEILNDILPQIIEGQKSGIIARKLLGAPTEFVSQYQP | 0.011
HMIKITLGWVISVRRHDLGYTQHKMARAVGISDLTVSRIESDDGITPDNNTLRKIAEYLKIDYNSLLTLK | -1.73
HMVLPELRLQGLPTAVLRLINRATALADDYRRLMEIAEDGRIDEWEAPEFERISENIQRVIAAGFEVL | 0.0167
HMSQSMEVLYTDLTDKDAAAIVEKLEEEKIPYQLEDQGTTILVPPGVKYTTRLKLAAEDLPKG | 0.000352
HMKLSIGGTIEKLRRNKGLSHQQLANALGVTPDTVEKWEINAAYPDITLLSPIARLLGTTLDALLMF | -0.649
HMEHETTQLELNAPGQRLDAALALALPDTSRAQIQQWIKQGLVTDQAGTALLQASLKLKSPLNVVLQRPI | 0.178
HMITNEDINIKKLLVVMKDTPLSANEIMDKLNIKSKETLRNMYLDPAIKKGLINLTIPDKPTSKNQKYYK | -0.0903
HMLDIPEVGQAVQVRGRLGTVFSVAPYDGREGRLHLVTVDYLDDARPPENDEILWEIESGARILG | -0.523
HMYRLDVEISDEIKRDIDEETLSEIKGIIAEDPRPSYQNDETRIYRFTFAGREISFRVKDRTATVTEIL | -0.0821
HMAFDESLVRSIQELLSELGYSPGKIDGLLGAKTVAAIKAFELEINKDQLTGEPSEELLIALQLAIRSSKM | -1.13
HMEKPTEITLSNRVSVQELAEKMYVSETDIIRTLFLDGRIININQVLDIDTAIRVGEQLGIKIKII | -0.496
HMNLAPLLTEYVQINFRRASEMKTYLEQANLISERGFLLADDQTNILMVRETGASIEEIRRTLNRF | -1.77
HMKMLEINDNDSVGLKNLKTQYNHNQKVIENFQLEINKVINDGELPDKYLLDGMEKYQKLNMQIMSTIEKQ | 0.00483
HMKEDSTIIERIISNLSSASLKTQKAFEYKLTDLMFRFSEGEYEWSSAMEVIREELLPFLNK | 0.0862
HMDLQNIQNQLNTEFAKSDTRIIFWFDDKGEYEDEVSELQLGDVKLHILDGLNWFYSKYLLNEA | -0.274
HMHINLEGLKKIDFRKKIGFLFGSEASGLSNKEVSYANYTLQIPTNINFKSLNLSHSLIIIAQFISSLLNS | -0.333
HMSLANTSVKEMLNDLVKNEEPSKPLSDEALVKIFKEKGVKIARRTVAKYRAELNILPSHLRRT | -0.749
HMANKLTSTNLAKQHKMGLSEMYAELMNSGYLIEKDGKYELTPLGISIGGESKPNRYKKGEFYFLWPSDIS | -0.29
HMVSVLDHIVGIGAKRRQSLWNHFGTIDKIKAASIDELLKAPGMNRPSAEAVYYFFEAQRQLRGK | -0.744
HMKGQNRSEITAGARVKVVQKQDQRTGALTEGIVRDILTRSPHHPHGIKVRLESGIVGRVKDVL | 0.0363

Sequence | soluble fraction (log2)
HMISENFVEAKILLTEDNRPKSLEILKDIIRQHDKVYSPLSLFLILDEDLEENKEIILEYFDLVLS | -0.185
HMTGKTTLEYLNPLLERGIPVWDYLAKASGKAKEEVQEMVSKGLVPGAEAAKAIADYMGAEFAGSMA | 0.0316
HMKQKAEVIFVSKTIMEALSKGVRLTPENLKSETELPIDDFYARLKELIDNGSVVESRENGESYLEAGN | 0.0977
HMSNEKVVKFAQELLVDEERSAISPALISAKIDQVLMFKPAWNEGLDRDAVVNELVRRFSIW | -0.841
HMKIAEALNLRGDADSYERQEAIWLLEHIVGMSALELKYRGEQDLTEDQLQQYRSGLQRLEQGEPLAYVIG | -0.396
HMVLANLQAAEQGDLGIKEGEKLTILQTRPDGWWTARNANGETGLVPK | 0.173
HMPKAPHETLSRREMEVLLLLSEGVTLTRIGDTIHVSVKTVSTYRARILQKLDLQSNAELTRYVLQHKL | -3.38
HMLHNEFINDRIQSAINNLSEHFKIVIILRDIQELSYEEISNIVEVPLGTIKSRINRARIQLQAELLDL | 0.269
HMNIEEQVVAEVLVKDFMKQLTPRDIHILELRKNGYTYQEIAGQLGYHTHSAVKKRVDRLAEQWLAYTQGH | -1.53
HMTWDSFIGYTVTDVQKGYLGEITDVDETTINVLLRVDHKGEELLIPAVEELITEADHEARSLTVSLPEGL | -0.0571
HMVTKQKKLVLTIIERSHGHLSAEEIFFRAREEMPNIALGTVYRNLNSLTEEGIVRRITLPGTSDRFDT | -2.79
HMAAINTYQVRKIYAIAGALGMKSRDGDDALHDLVFGMTGKQHISGLTSAEAYDVIAELEKKQ | -1.66
HMGSFAADVGRMVRLGRAKRGISRRKLAADSGISERYLAQIEGGQGNPSVNVLKAIADAISVPVFELLPH | -1
HMAPDNDELEKAKKIVNAFIEAKAKGLGVVSLGTKMIDAPVVKRAQKIIDQTIVMGKLSLNWQDEFFN | -0.0351
HMKELVEDFASRISNARQSKGWNQSELAKRMAETVNVVKSAESGKSPTDSVIKKLERVLGIILM | -0.591
HMDIVIPIQVKNVSSGEVLDFPSIRAAARDLKFPKTTISLGVRYAGEKAYKGFVMRYRSDDPWPIVQES | -1.93
HMTTEPYILTRMPDGSIKAEPNLNYKGPEQKPGSNIQVKGADGRIYLVPIDGQGKPGKPQLVD | 0.116
HMTAEASELRERIRAAMATLPPAQQRVIELAYFEGLTQREIAALLNEPLGTIKTRMRLGMRKLKDVL | -0.747
HMQPMIQIHTLANHAPVALHIKRNTQRNIIIRARDASSLNLSIPKWFSPAQLQNWLRDNEATLIRILQQAP | -2.49
HMNSTRAPYLLDFEEDAAIREARRAGLVPRIARQPSGEPVGRVILQSHDYDYPMKRGDTILITISSG | -0.737
HMGATFITSSKDNAINIRQAAGTDSKVIETIKNGHILESSEKSGEWYKVTYYDSDIKKTFTGYIHNSQLK | 0.159
HMASATGVVTAASLNVRSGAGTNYSVVNTLAKGTKVTVLNTADGWYEIEATVNNEKITGYVSATYIAMD | 0.222
HMDAVSYTQFMQDAKAGRIKKVIVHQSGILDVTTTEGRRFNLTSPGDLWMVGDLVKDGVDVVGAP | -0.0657
HMKPDMAVIVGSRTLTFATTTDRQILVLRTDGTMVNRLSMKAGETRTITLPAGVYIVNGKKIIV | -0.808
HMAQLTPREREVLVLIAEGKSNKEIADQLNIGVRTIETHRERIMRRLNIHSVAGLTKYAIANGLVTL | 0.116
